From patent publication US20250197499A1 (STEALTH IO, published 2025) come the findings set out here.

For experiment [1], the target named is T1, Recombinant human PD-L2-His tag (ACROBiosystems, #PD2-H5220) (human, UniProt Q9BQ51 20-219).
T1 construct: Bought protein; also called sPD-L2; human PD-L2-His tag protein; not shown: His tag
T1 sequence (looked up): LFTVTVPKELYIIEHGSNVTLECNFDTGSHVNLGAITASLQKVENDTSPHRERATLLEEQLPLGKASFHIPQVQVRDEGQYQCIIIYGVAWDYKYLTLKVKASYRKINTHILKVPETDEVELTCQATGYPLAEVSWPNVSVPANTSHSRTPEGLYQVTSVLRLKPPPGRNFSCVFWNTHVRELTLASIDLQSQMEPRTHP
Put plainly: Octet RED96e; PD-L2-His loaded at 10 µg/ml on HIS1K sensor; sample 55,6 nM. As for the experimental part:
(§1) FIG. 4a is a graph of Octet binding studies on sPD-L2. Recombinant human PD-L2-His tag (ACROBiosystems, #PD2-H5220) was loaded to His-sensor (HIS1 K (Anti-Penta-His)) at 10 μg/ml and the binding of each construct was evaluated by Octet RED96e.
(§2) FIG. 4c is a graph depicting the KD values of anti-CD28/sPD-1 constructs on human PD-L2-His tag protein by Octet RED96e. The equilibrium dissociation constant (KD) is calculated as the ratio koff/kₒₙ (with koff:dissociation rates, and kₒₙ:association rates).
(§3) Anti-CD28/sPD-1 antibody fusion constructs were assessed for their ability to bind PD-1 ligands, PD-L1 and PD-L2 by Octet RED96e. Recombinant human PD-L1-His tag (ACROBiosystems, #PD1-H5229) or recombinant human PD-L2-His tag (ACROBiosystems, #PD2-H5220) were loaded to His-sensor (HIS1 K (Anti-Penta-His)) at 10 μg/ml. […] FIG. 3c is a summary of affinity (measured as Kd, M) for each construct on human PD-L1. […] FIG. 4c is a summary of affinity (measured as Kd, M) for each construct on human PD-L2.
In general terms: BLI is a label-free optical method that tracks binding on a fibre tip over time.

The target in experiment [2] is T2, Recombinant human PD-L1-His tag (ACROBiosystems, #PD1-H5229) (human, UniProt Q9NZQ7 19-238).
T2 construct: Bought protein; also called sPD-L1; human PD-L1-His tag protein; not shown: His tag
Description: Octet RED96e; PD-L1-His loaded at 10 µg/ml on HIS1K sensor; sample 55,6 nM. As for the experimental part:
(§4) FIG. 3a is a graph of Octet binding studies on sPD-L1. Recombinant human PD-L1-His tag (ACROBiosystems, #PD1-H5229) was loaded to His-sensor (HIS1K (Anti-Penta-His)) at 10 μg/ml and the binding of each construct was evaluated by Octet RED96e.
(§5) FIG. 3c is a graph depicting the KD values of anti-CD28/sPD-1 constructs on human PD-L1-His tag protein by Octet RED96e. The equilibrium dissociation constant (KD) is calculated as the ratio koff/kₒₙ (with koff:dissociation rates, and kₒₙ:association rates).
as §3

Experiment [3] concerns the target T2, Recombinant human PD-L1-His tag …. Description: Octet RED96e, PD-L1-His on HIS1K sensor. Here is the method: as §4, §5, §3
The target is the same in experiment [4]. Put plainly: Octet RED96e; PD-L1-His loaded at 10 µg/ml on HIS1K sensor; sample 277,8 nM. As for the experimental part: as §4, §5, §3
Experiment [5] addresses T1, Recombinant human PD-L2-His tag …. Description: Octet RED96e; PD-L2-His loaded at 10 µg/ml on HIS1K sensor; sample 277,8 nM. As for the experimental part:
as §1, §2, §3

Experiment [6] shares this target. Description: Octet RED96e, PD-L2-His on HIS1K sensor. As for the experimental part:
as §1, §2, §3

Experiment [7] has the same target. Description: Octet RED96e; PD-L2-His loaded at 10 µg/ml on HIS1K sensor; sample 588,2 nM. As for the experimental part: as §1, §2, §3
For experiment [8] the target is unchanged. Description: Octet RED96e; PD-L2-His loaded at 10 µg/ml on HIS1K sensor; sample 117,6 nM. Here is the method: as §1, §2, §3
Experiment [9] has as its target T3, Recombinant human sCD28 Fc-fusion protein (PeproTech, #310-34) (human, UniProt P10747 19-152).
T3 construct: Bought protein; also called soluble CD28; not shown: Fc part of the bought fusion; not described
Put plainly: Octet RED96e; sCD28 Fc-fusion loaded at 2,5 µg/ml on protA sensor; sample 588,2 nM; control without CD28-binding Fab. Here is the method: (§6) FIG. 5a is a graph of Octet binding studies on sCD28. Recombinant human sCD28 Fc-fusion protein (PeproTech, #310-34) was loaded to protA sensor at 2.5 μg/ml and the binding of each construct was evaluated by Octet RED96e.
(§7) FIG. 5c is a graph depicting the KD values of anti-CD28/sPD-1 constructs on human sCD28 Fc-fusion protein by Octet RED96e. The equilibrium dissociation constant (KD) is calculated as the ratio koff/kₒₙ (with koff:dissociation rates, and kₒₙ:association rates).
(§8) Anti-CD28/sPD-1 antibody fusion constructs were assessed for their ability to bind CD28 by Octet RED96e. Recombinant human sCD28 Fc-fusion protein (PeproTech, #310-34) was loaded to protA sensor at 2.5 μg/ml. […] FIG. 5c is a summary of affinity (measured as Kd, M) for each construct on human CD28.

For experiment [10], the target named is T2, Recombinant human PD-L1-His tag …. Put plainly: Octet RED96e; PD-L1-His loaded at 10 µg/ml on HIS1K sensor; sample 117,6 nM. As for the experimental part:
as §4, §5, §3

For experiment [11], the target named is T3, Recombinant human sCD28 Fc-fusion …. Put plainly: Octet RED96e; sCD28 Fc-fusion loaded at 2,5 µg/ml on protA sensor; sample 117,6 nM; control without CD28-binding Fab. Here is the method: as §6, §7, §8
Experiment [12] addresses T2, Recombinant human PD-L1-His tag …. Description: Octet RED96e; PD-L1-His loaded at 10 µg/ml on HIS1K sensor; sample 588,2 nM. As for the experimental part:
as §4, §5, §3

B1: bivalent anti-CD28/sPD-1 wt (bispecific antibody, human IgG1, kappa)
light: DIELTQSPASLAVSLGQRATISCRASESVEYYVTSLMQWYQQKPGQPPKLLIFAASNVESGVPARFSGSGSGTNFSLNIHPVDEDDVAMYFCQQSRKVPYTFGGGTKLEIKRTVAAPSVFIFPPSDEQLKSGTASVVCLLNNFYPREAKVQWKVDNALQSGNSQESVTEQDSKDSTYSLSSTLTLSKADYEKHKVYACEVTHQGLSSPVTKSFNRGEC
heavy: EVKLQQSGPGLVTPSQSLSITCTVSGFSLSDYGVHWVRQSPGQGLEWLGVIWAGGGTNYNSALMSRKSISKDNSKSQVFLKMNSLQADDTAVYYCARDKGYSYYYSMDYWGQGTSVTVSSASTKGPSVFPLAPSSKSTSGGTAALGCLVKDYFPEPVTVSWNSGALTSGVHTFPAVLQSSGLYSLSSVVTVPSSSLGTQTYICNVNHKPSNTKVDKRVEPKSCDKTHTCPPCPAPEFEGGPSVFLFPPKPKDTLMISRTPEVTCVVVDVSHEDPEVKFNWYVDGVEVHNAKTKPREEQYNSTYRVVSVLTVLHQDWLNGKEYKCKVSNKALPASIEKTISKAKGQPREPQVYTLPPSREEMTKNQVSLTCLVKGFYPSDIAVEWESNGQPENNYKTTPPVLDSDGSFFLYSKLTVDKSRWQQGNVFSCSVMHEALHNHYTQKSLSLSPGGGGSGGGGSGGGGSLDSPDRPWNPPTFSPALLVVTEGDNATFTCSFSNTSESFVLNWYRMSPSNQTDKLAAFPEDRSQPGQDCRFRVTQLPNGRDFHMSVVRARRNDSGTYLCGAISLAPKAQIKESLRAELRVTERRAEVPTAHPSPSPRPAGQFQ
notes: Two Fabs of clone 9.3 against CD28, two wild-type sPD-1 fragments; also called Bivalent anti-CD28/sPD-1 Wild type structure; bispecific protein complex A:B-C-X:D-C'-Y
The Kd is the constant that tells how readily two partners part at equilibrium. One may read the koff as the rate constant with which the complex falls apart. In general, kon refers to a measure of how fast the partners come together. As for B1, the Kd was 7.73 nM in [1]; 21.7 nM in [2]; roughly 10 nM in [3]; 37.5 nM in experiment [4]; 18.1 nM in [5]; roughly 10 nM in experiment [6]. Also, the koff was determined as 0.00268 s⁻¹ in experiment [1], 0.0133 s⁻¹ in experiment [2], 0.0159 s⁻¹ in experiment [4] and 0.00314 s⁻¹ in [5]. Further, the kon in [1] turned out to be 347000 M⁻¹ s⁻¹; in experiment [2], 614000 M⁻¹ s⁻¹; in experiment [4] it was 423000 M⁻¹ s⁻¹; in [5], 174000 M⁻¹ s⁻¹.

B2: nonvalent (or dummy) Fc/sPD-1 mut (Fc fusion)
chain: DKTHTCPPCPAPEFEGGPSVFLFPPKPKDTLMISRTPEVTCVVVDVSHEDPEVKFNWYVDGVEVHNAKTKPREEQYNSTYRVVSVLTVLHQDWLNGKEYKCKVSNKALPASIEKTISKAKGQPREPQVYTLPPSREEMTKNQVSLTCLVKGFYPSDIAVEWESNGQPENNYKTTPPVLDSDGSFFLYSKLTVDKSRWQQGNVFSCSVMHEALHNHYTQKSLSLSPGGGGSGGGGSGGGGSLDSPDRPWNPPTFSPALLVVTEGDNATFTCSFSNTSESFVLNWYRMSPSNQTDKLAAFPEDRSQPGQDCRFRVTQLPNGRDFHMSVVRARRNDSGTYLCSAISLAPYIQIKESLRAELRVTERRAEVPTAHPSPSPRPAGQFQ
notes: also called Fc/sPD-1 mutated; Fc/sPD-1 mutant construct
On to B2, for which the Kd in experiment [7] worked out at 0.0118 nM; in experiment [8], 1.56 nM; in experiment [9] it was 17.8 nM; in [10] it was 2.24 nM; in experiment [11], 2950 nM; in [12], 0.00629 nM. For the same molecule, the koff in [7] stood at 5.99e-07 s⁻¹; in [8], 0.000461 s⁻¹; in [9], 0.000107 s⁻¹; in [10], 0.00132 s⁻¹; in experiment [11], 0.00204 s⁻¹; in experiment [12], 6.93e-07 s⁻¹. The kon in experiment [7] came out at 50700 M⁻¹ s⁻¹; in [8], 295000 M⁻¹ s⁻¹; in experiment [9] it was 6000 M⁻¹ s⁻¹; in experiment [10], 588000 M⁻¹ s⁻¹; in experiment [11], 692 M⁻¹ s⁻¹; in experiment [12], 110000 M⁻¹ s⁻¹.
